Test results taken from patent publication US20260152573A1.

Key:
[1] = target: FcRn (cells of the occupancy assay not stated) (UniProt P55899); test: FcRn occupancy assay, cells not given
[2] = target: neonatal Fc receptor (FcRn), endogenous in U937 cells (human) (UniProt P55899); test: FcRn occupancy, FACS, U937 cells, with albumin
[3] = target: FcRn-L322A/L323A expressed in HEK293 cells (human) (UniProt P55899); test: FcRn occupancy, FACS, HEK293-FcRn-mut cells, with albumin
[4] = target: FcRn-L322A/L323A expressed in HEK293 cells (human) (UniProt P55899); test: FcRn occupancy, FACS, HEK293-FcRn-mut cells, without albumin
[5] = target: neonatal Fc receptor (FcRn), endogenous in U937 cells (human) (UniProt P55899); test: cell-based FcRn occupancy assay on U937 cells, flow cytometry; free FcRn stained with anti-FcRn-Fab AF647

IC50 [1]: 6 nM | % max occupancy [2]: 56.8% | IC50 [2]: 4.8 nM | % max occupancy [3]: 57.7% | IC50 [3]: 16.1 nM | IC50 [4]: 6.8 nM | IC50 (read off the curve) [5]: 0.3 nM
Substance: efgartigimod
